Experimental findings from patent publication US20250026849A1 (ARCELLX, published 2025) are described below.

Changes are numbered by the printed parent chain.

Sequences and labels used below:
T1: CD123 (Homo sapiens (Human), UniProt P26951 19-305, limits assumed)
T1 construct: The CD123 construct used in the ELISA is not described; also called CD123-Signal
T1 sequence: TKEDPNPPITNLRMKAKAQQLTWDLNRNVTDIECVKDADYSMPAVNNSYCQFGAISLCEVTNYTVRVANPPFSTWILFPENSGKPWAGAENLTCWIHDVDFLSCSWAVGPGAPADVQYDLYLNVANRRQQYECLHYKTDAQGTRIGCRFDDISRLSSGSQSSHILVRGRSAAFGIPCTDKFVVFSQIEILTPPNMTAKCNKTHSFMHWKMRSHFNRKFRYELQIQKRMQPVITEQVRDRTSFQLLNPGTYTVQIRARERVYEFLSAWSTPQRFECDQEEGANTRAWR

B1: D domain of SEQ ID NO: 442 (designed binder)
chain: MGSWVEFHMRLDAIYERLDALGGSEAELAAFEKEIAAFESELQAYKGKGNPEVEWLRTAAANIRVELQAYRHN
B2: D domain of SEQ ID NO: 441 (designed binder)
chain: B1 chain with H8Y, M9T, E16G, T58Q, A59V, V65M
B3: D domain of SEQ ID NO: 357 (designed binder)
chain: MGSWYEFVIRLEAIEDRLWALGGSEAELAAFEKEIAAFESELQAYKGKGNPEVEVLRWYAADIRHELQAYRHN
B4: D domain of SEQ ID NO: 435 (designed binder)
chain: B1 chain with V5S, H8N, D19T, T58H, A59S, N62R, V65L
B5: D domain of SEQ ID NO: 359 (designed binder)
chain: B3 chain with Y5T, V8S, E15Y, W19V, W58T, D62F
B6: D domain of SEQ ID NO: 451 (designed binder)
chain: B1 chain with V5T, H8N, M9L, E16D, D19M, T58A, A59S, N62A
B7: D domain of SEQ ID NO: 450 (designed binder)
chain: B1 chain with V5H, H8G, M9V, E16D, D19M, W55F, T58Q, V65S
B8: D domain of SEQ ID NO: 440 (designed binder)
chain: B1 chain with V5T, H8Y, M9V, T58M, A59V, V65T
B9: D domain of SEQ ID NO: 447 (designed binder)
chain: B1 chain with M9L, E16G, D19M, W55N, T58V, A59W, V65N
B10: D domain of SEQ ID NO: 454 (designed binder)
chain: B1 chain with V5N, H8A, M9W, E16S, D19A, T58V, V65Y
B11: D domain of SEQ ID NO: 436 (designed binder)
chain: B1 chain with V5S, H8N, D19T, T58H, A59S, N62L, V65L
B12: D domain of SEQ ID NO: 448 (designed binder)
chain: B1 chain with H8E, Y15V, E16G, D19Y, W55K, T58R, A59W, V65S
B13: D domain of SEQ ID NO: 453 (designed binder)
chain: B1 chain with H8N, M9W, E16D, D19V, T58V, A59S, N62K, V65G
B14: D domain of SEQ ID NO: 438 (designed binder)
chain: B1 chain with V5Y, M9H, D19L, T58S, A59S, V65K
B15: D domain of SEQ ID NO: 449 (designed binder)
chain: B1 chain with H8N, M9I, D19Y, W55K, T58H, A59W, N62S, V65R
B16: D domain of SEQ ID NO: 452 (designed binder)
chain: B1 chain with V5T, H8N, M9L, E16G, D19S, W55F, T58A
B17: D domain of SEQ ID NO: 443 (designed binder)
chain: B1 chain with V5Y, H8A, M9I, D19H, W55Y, T58V, A59W, V65T
B18: D domain of SEQ ID NO: 446 (designed binder)
chain: B1 chain with V5S, M9V, E16A, W55R, T58E, A59W, V65R
B19: D domain of SEQ ID NO: 455 (designed binder)
chain: B1 chain with V5T, H8A, M9W, E16D, D19L, T58H, A59V, V65R
B20: D domain of SEQ ID NO: 439 (designed binder)
chain: B1 chain with V5Y, H8A, M9K, D19V, T58S, A59S, V65E
B21: D domain of SEQ ID NO: 358 (designed binder)
chain: B3 chain with Y5T, V8S, E15Y, W19V, W58T, D62N
B22: D domain of SEQ ID NO: 444 (designed binder)
chain: B1 chain with V5N, H8V, M9I, D19L, W55Y, T58M, V65M
B23: D domain of SEQ ID NO: 445 (designed binder)
chain: MGSWSEFYVRVDAIYARLSALGGSEAELAAFEKEIAAFESELQAYKGKGNPEVEKLRVWAANIRHELQAYRHN
B24: D domain of SEQ ID NO: 456 (designed binder)
chain: B1 chain with H8S, M9I, E16T, D19V, W55M, T58K, A59G, V65K
B25: D domain of SEQ ID NO: 437 (designed binder)
chain: B1 chain with V5I, H8N, D19V, T58K, A59V, V65L
B26: D domain of SEQ ID NO: 356 (designed binder)
chain: B3 chain with Y5T, V8Y, I9Y, V55F, W58V, Y59E, D62N, H65D, E66M
B27: D domain of SEQ ID NO: 351 (designed binder)
chain: MGSWVEFWFRLEAIDSRLWALGGSEAELAAFEKEIAAFESELQAYKGKGNPEVEWLREEAAAIREDLQAYRHN
B28: D domain of SEQ ID NO: 413 (designed binder)
chain: B27 chain with V5F, W8E, F9D, D15Y, S16Q, W19D, E58D, A62W, E65S
B29: D domain of SEQ ID NO: 400 (designed binder)
chain: B27 chain with W8Y, F9S, E12D, D15E, S16D, E58I, E59A, A62S
B30: D domain of SEQ ID NO: 401 (designed binder)
chain: B3 chain with V8Y, I9E, E12D, D16E, W58D, Y59W, D62W, H65E, E66D
B31: D domain of SEQ ID NO: 416 (designed binder)
chain: MGSWFEFQDRLWAIDNRLWALGGSEAELAAFEKEIAAFESELQAYKGKGNPEVEELRDHAAMIRWELQAYRHN
B32: D domain of SEQ ID NO: 405 (designed binder)
chain: B31 chain with F5D, Q8V, D15E, N16E, D58I, H59Q, M62I, W65E, E66A
B33: D domain of SEQ ID NO: 352 (designed binder)
chain: B27 chain with F9Q, D15E, W55F, A62E, E65W, D66E
B34: D domain of SEQ ID NO: 412 (designed binder)
chain: B27 chain with V5F, F9D, D15W, S16E, W19D, W55E, E58R, A62I
B35: D domain of SEQ ID NO: 430 (designed binder)
chain: B27 chain with V5M, W8E, F9E, E12W, E58S, A62W, E65M, D66E
B36: D domain of SEQ ID NO: 414 (designed binder)
chain: B31 chain with Q8H, N16E, E55I, D58E, H59E, M62D, W65L, E66D
B37: D domain of SEQ ID NO: 415 (designed binder)
chain: B31 chain with F5Y, Q8E, D58V, M62D, W65D, E66D
B38: D domain of SEQ ID NO: 363 (designed binder)
chain: MGSWIEFYDRLEAIYDRLDALGGSEAELAAFEKEIAAFESELQAYKGKGNPEVEWLREDAAFIRSWLQAYRHN
B39: D domain of SEQ ID NO: 349 (designed binder)
chain: B31 chain with F5T, Q8H, W12E, N16D, E55Y, D58E, H59E, M62Q
B40: D domain of SEQ ID NO: 362 (designed binder)
chain: B38 chain with I5V, Y8H, Y15E, D19Y, F62Y, W66I
B41: D domain of SEQ ID NO: 397 (designed binder)
chain: B1 chain with H8D, M9Q, D19Y, T58D, A59E, N62E, V65E, E66H
B42: D domain of SEQ ID NO: 404 (designed binder)
chain: B27 chain with V5M, W8V, F9D, E12D, D15E, E58I, A62F, D66E
B43: D domain of SEQ ID NO: 353 (designed binder)
chain: B27 chain with V5S, F9Q, D15E, S16D, E59N, A62M, E65D, D66E
B44: D domain of SEQ ID NO: 403 (designed binder)
chain: B3 chain with V8W, I9D, E12D, I14L, V55Y, W58D, Y59S, D62F, H65E
B45: D domain of SEQ ID NO: 402 (designed binder)
chain: B31 chain with Q8D, D15E, E55V, H59N, M62W, W65E, E66I
B46: D domain of SEQ ID NO: 364 (designed binder)
chain: B38 chain with I5V, Y8D, D9Q, D19Y, F62Q, S65K
B47: D domain of SEQ ID NO: 396 (designed binder)
chain: B1 chain with H8D, D12S, Y15W, D19I, T58E, A59D, N62E, V65E, E66F
B48: D domain of SEQ ID NO: 350 (designed binder)
chain: B31 chain with F5A, Q8E, D15E, N16D, E55Y, D58E, H59E, M62A, W65F
B49: D domain of SEQ ID NO: 354 (designed binder)
chain: B27 chain with V5S, W8I, F9T, S16D, W55I, A62E, E65Q, D66H
B50: D domain of SEQ ID NO: 361 (designed binder)
chain: B38 chain with I5V, Y8H, D9E, Y15E, D19M, W55Y, S65Q, W66L
B51: D domain of SEQ ID NO: 365 (designed binder)
chain: B38 chain with I5V, Y8H, Y15E, D19L, W55D, D59Y, F62G, S65W, W66F
B52: D domain of SEQ ID NO: 355 (designed binder)
chain: B27 chain with V5Y, W8E, F9T, D15Y, S16D, W55L, E58V, A62E

The experiment deals with T1, CD123. The experiment can be described thus: ELISA. The arrangement: unit not given here.
Molecule B1 displayed an ELISA_avg of 9.1. The result for B2 reads 14.4; that for B3, 6.4. The result for B4 reads 13.7; that for B5, 10.2. Under B6 stands 14.4; under B7, 15.6; under B8, 16.

B9 registered an ELISA_avg of 17.5.

Consider B10, for which the ELISA_avg came out at 17.7. The result for B11 reads 11.4; that for B12, 25.3; that for B13, 9.3. Under B14 stands 11.9; under B15, 13.4. The result for B16 reads 19.3; that for B17, 25.5.

The molecule B18 registered an ELISA_avg of 14.4.

In turn, B19 showed an ELISA_avg of 16.1.

In turn, B20 registered an ELISA_avg of 15.3. As to B21, the ELISA_avg is 11.9. Under B22 stands 16.6; under B23, 14.7. The result for B24 reads 15.1. Molecule B25 showed an ELISA_avg of 11.4. The result for B26 reads 7.5; that for B27, 3.2; that for B28, 5.5. The molecule B29 returned an ELISA_avg of 9.4. Under B30 stands 8.4; under B31, 3.2. On to B32, for which the ELISA_avg was determined as 6. Regarding B33, the ELISA_avg is 7.7. The result for B34 reads 10.3; that for B35, 3.2. Under B36 stands 3.5; under B37, 4.9; under B38, 7.5. The result for B39 reads 5.8; that for B40, 4.6; that for B41, 10.5. With B42, the ELISA_avg was found to be 5.8. The molecule B43 gave an ELISA_avg of 4.7.

B44 displayed an ELISA_avg of 9.7. The result for B45 reads 4.2. The result for B46 reads 5.1; that for B47, 3.3. The result for B48 reads 6.2. With B49, the ELISA_avg turned out to be 3.3. Under B50 stands 3.7; under B51, 3.3.

The molecule B52 yielded an ELISA_avg of 3.2.
